The source of these data is patent US6506587B2, “TRF 1 binding protein, methods of use thereof” (The Rockefeller University, priority 1998, dated 2003).

Where a chain is given by its changes, count along the chain named. “Also recorded” adds a separate entry of the source.

The target of test [1] is T1, tankyrase (Homo sapiens, UniProt O95271).
T1 construct: [His]6 (pFastBac HTb) (N); made in house; host or cells: SF21 insect cells (baculovirus)
T1 sequence (O95271 1-1327): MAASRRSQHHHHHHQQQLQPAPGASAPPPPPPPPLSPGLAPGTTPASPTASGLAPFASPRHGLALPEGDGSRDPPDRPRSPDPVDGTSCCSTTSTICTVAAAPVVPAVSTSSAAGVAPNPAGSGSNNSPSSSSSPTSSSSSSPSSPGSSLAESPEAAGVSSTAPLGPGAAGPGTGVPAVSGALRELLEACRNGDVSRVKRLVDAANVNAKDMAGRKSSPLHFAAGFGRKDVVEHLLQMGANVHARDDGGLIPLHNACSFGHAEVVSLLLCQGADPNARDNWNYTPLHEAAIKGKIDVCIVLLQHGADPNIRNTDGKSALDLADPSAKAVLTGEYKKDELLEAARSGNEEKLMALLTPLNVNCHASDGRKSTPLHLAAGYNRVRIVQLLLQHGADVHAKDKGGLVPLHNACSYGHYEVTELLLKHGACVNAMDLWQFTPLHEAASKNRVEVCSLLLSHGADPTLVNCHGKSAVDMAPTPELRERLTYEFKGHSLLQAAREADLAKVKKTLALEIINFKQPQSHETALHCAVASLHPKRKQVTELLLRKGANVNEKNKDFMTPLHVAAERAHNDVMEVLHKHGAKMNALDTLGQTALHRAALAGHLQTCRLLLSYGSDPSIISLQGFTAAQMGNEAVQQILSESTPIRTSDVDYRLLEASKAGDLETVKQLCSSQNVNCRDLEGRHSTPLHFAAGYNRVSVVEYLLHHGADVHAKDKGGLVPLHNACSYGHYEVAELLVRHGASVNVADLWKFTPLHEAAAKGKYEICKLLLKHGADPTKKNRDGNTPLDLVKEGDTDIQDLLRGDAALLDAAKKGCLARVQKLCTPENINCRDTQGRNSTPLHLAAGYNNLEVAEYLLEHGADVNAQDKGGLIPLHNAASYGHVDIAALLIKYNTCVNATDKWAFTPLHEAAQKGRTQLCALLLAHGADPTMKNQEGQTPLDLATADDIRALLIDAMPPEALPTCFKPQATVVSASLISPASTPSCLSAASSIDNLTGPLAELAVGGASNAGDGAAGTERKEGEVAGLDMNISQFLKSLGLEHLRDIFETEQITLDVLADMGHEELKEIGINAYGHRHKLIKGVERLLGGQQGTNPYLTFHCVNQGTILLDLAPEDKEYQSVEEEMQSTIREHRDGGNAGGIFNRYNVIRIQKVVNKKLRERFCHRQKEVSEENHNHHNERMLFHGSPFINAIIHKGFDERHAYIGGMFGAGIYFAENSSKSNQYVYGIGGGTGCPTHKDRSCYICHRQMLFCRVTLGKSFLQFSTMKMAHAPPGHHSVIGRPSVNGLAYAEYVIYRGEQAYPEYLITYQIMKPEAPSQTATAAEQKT
The test can be described thus: PARP assay with baculovirus-derived tankyrase and [32P]NAD+. Conditions: 1 mM 3AB; 4 μg tankyrase, without or with 4 μg TRF1; 1.3 μM [32P]NAD+. Type of test: biochemical. Here is the method:
Reactions containing 4 μg tankyrase (+), without (−) or with (+) 4 μg TRF 1, and 1.3 μM [^32P]NAD^+ were incubated without (−) or with (+) 1 mM 3AB and processed as in FIG. 9A.
PARP assays were performed with baculovirus-derived tankyrase essentially as described in [Simonin et al. 268:8529 (1993)] but without addition of DNA. To make baculovirus-derived protein, an N-terminally [His]6-tagged fusion protein of human tankyrase was generated in the expression vector pFastBac HTb (Gibco BRL, Grand Island) and used to generate a recombinant plasmid in DH10Bac E. coli. The recombinant DNA was used to transfect SF21 insect cells and recombinant virus was isolated and amplified. Protein was purified as described for baculovirus-derived TRF1 [Bianchi et al., EMBO J. 16:1785 (1997)]. Samples containing tankyrase (0-4 μg) and TRF1 (0-4 μg) [Bianchi et al., EMBO J. 16:1785 (1997)] were incubated for 30 minutes at 25° C. in 0.1 ml of assay buffer containing 50 mM Tris-HCl (pH 8.0), 4 mM Mg Cl2, 0.2 mM dithiothreitol (DTT), 1.3 μM [^32P]NAD+ (4 μCi) and varying concentrations of unlabeled NAD+ (0-1 mM). Reactions were stopped by the addition of 20% trichloroacetic acid (TCA). Acid-insoluble proteins were collected by centrifugation, rinsed in 5% TCA, suspended in Laemmli loading buffer, and fractionated on SDS-PAGE. Proteins were visualized by Coomassie-Blue stain and autoradiography. […]

Test [2] has as its system TRF1. Nature of the test: Gel-shift assay for TTAGGG repeat binding activity of TRF1. Type of test: biochemical. The protocol:
The Gel-shift assay for the TTAGGG repeat binding activity of TRF1 used a duplex [TTAGGG]12 DNA as a probe. Binding reactions contained the components indicated above the lanes. Tankyrase was varied from 2.5 to 200 ng per 20 μl incubation in three-fold dilution steps (triangles). TRF1 was either present at 13 ng (+) or varied from 120 to 13 ng in three-fold dilution steps (triangle). NAD^+ was at 0 (−) or 0.2 mM (+). The asterisks indicate the position of TRF1-containing complexes as determined by antibody super-shift experiments.
Gel-shift assays were performed using an end-labeled 142 bp Hindlll-Asp718 fragment from plasmid pTH12 [Z. Zhong, et al, Mol. Cell. Biol. 12:4834 (1992)] containing 12 tandem TTAGGG repeats. Baculovirus-derived TRF1 (13 to 120 ng) [Bianchi et al. EMBO J. 16:1785 (1997)] was incubated for 30 minutes at room temperature in a 20 μl reaction containing 20 mM Hepes-KOH (pH 7.9), 100 mM KCL, 0.5 mM DTT, 5% glycerol, 0.1% NP40, 100 ng sheared E. coli DNA, 100 ng β-casein, and 1 ng of labeled probe. In some cases, reactions were supplemented with NAD^+ (0.2 mM) and baculovirus-derived human tankyrase (2.5 to 200 ng). Samples were fractionated on a 0.7% agarose gel run in 0.1× TBE (8.9 mM Tris-base, 8.9 mM Boric acid, and 0.2 mM EDTA) at 130 volts for 1 hour at room temperature. Gels were dried onto Whatman DE81 paper and autoradiographed.

The target of test [3] is T2, TRF1 (Homo sapiens, UniProt P54274).
T2 construct: expressed in transfected cells; host or cells: yeast strain L40
T2 sequence (P54274 67-439): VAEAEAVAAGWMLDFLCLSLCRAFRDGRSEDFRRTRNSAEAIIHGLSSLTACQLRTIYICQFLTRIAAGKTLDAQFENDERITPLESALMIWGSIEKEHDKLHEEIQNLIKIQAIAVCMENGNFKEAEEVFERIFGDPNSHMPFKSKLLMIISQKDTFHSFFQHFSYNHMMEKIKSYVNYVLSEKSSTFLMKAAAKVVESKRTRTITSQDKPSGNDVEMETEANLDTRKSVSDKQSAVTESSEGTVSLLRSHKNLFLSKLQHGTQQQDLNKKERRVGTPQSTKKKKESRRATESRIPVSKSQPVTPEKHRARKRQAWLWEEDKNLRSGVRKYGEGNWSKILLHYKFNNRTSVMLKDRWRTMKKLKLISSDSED
The test can be described thus: Yeast two-hybrid analysis, β-galactosidase assay. Type of test: cell-based. The following applies: ΔN66-LexA (deletion of the acidic domain of TRF1). The protocol:
(§1) Proteins were immunoprecipitated with an unrelated rabbit serum as a control (C) (lanes 1 and 4), anti-tankyrase antibodies (tankyrase) (lanes 2 and 6) or anti-TRF1 antibody 371 (TRF1) (lanes 3 and 5). Samples were processed, suspended in Laemmli buffer and divided in half. One set was not heated (left panel) and the other was heated at 100° C. for 5 min (right panel). Proteins were fractionated on 10% SDS-PAGE, transferred to nitrocellulose and probed with anti-TRF1 antibody 371 (left panel) or anti-tankyrase antibodies (right panel). […] The values represent an average of three independent transformations. Values<0.01 are indicated by 0.
(§2) TR1L-4 and TR1L-12 were isolated from a human liver two-hybrid cDNA library (Clontech) created in pGad10. The library was screened with human full length TRF1 cDNA fused to LexA (LexA-TRF1) [Bianchi et al., EMBO J., 16:1785-1794 (1997)] in the yeast strain L40 as described [Hollenberg et al., Mol. Cell Biol., 15:3813-3822 (1995)]. Two-hybrid analysis was performed as described by Bianchi et al. [EMBO J., 16:1785-1794 (1997)]. β-galactosidase assays for the two-hybrid analysis was performed as described by Bianchi et al. [EMBO J., 16:1785-1794 (1997)].

Test [4] has as its target T3, TRF1 (Homo sapiens, UniProt P54274).
T3 construct: expressed in transfected cells; host or cells: yeast strain L40
Nature of the test: Yeast two-hybrid analysis, β-galactosidase assay. Format: cell-based. The following applies: with amino-terminal acidic domain of TRF1 (LexAd68-C); 12.0 units with GAD lacking tankyrase sequences; average of three transformations. The protocol: as §1, §2
T3 sequence (P54274 1-67): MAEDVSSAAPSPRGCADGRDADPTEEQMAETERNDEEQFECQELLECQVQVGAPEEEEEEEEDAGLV

With `NC(=O)c1cccc(N)c1` [3AB, 3-aminobenzamide], the “Modification (ADP-ribosylation) of TRF1 and tankyrase by tankyrase” value in test [1] is on record as “strongly inhibited; also recorded: inhibited”.

B1: tankyrase: human TRF1-binding protein of SEQ ID NO:2 with ANK repeats, SAM motif and PARP-related domain; recombinant, baculovirus-derived (protein)
chain: T1 sequence (O95271 1-1327) with R802K
Consider B1, for which the “TRF1 DNA binding activity on [TTAGGG]12 probe” value in test [2] (NAD+ included (0.2 mM), tankyrase 2.5 to 200 ng per 20 μl, TRF1 13 ng) was “drastic reduction”; in test [2] (NAD+ included (0.2 mM), tankyrase 2.5 to 200 ng per 20 μl, TRF1 13 ng, listed as Tankyrase), “inhibition”; in test [2] (absence of NAD+, effect also seen with total insect cell protein (non-specific)), “slight stimulation”.

B2: GAD-tankyrase: 10-ANK repeat domain of TR1L-12 (ANK repeats 9-19) fused to the GAL4 activation domain (protein)
chain: FTPLHEAASKNRVEVCSLLLSHGADPTLVNCHGKSAVDMAPTPELRERLTYEFKGHSLLQAAREADLAKVKKTLALEIINFKQPQSHETALHCAVASLHPKRKQVTELLLRKGANVNEKNKDFMTPLHVAAERAHNDVMEVLHKHGAKMNALDTLGQTALHRAALAGHLQTCRLLLSYGSDPSIISLQGFTAAQMGNEAVQQILSESTPIRTSDVDYRLLEASKAGDLETVKQLCSSQNVNCRDLEGRHSTPLHFAAGYNRVSVVEYLLHHGADVHAKDKGGLVPLHNACSYGHYEVAELLVRHGASVNVADLWKFTPLHEAAAKGKYEICKLLLKHGADPTKKNRDGNTPLDLVKEGDTDI
modifications: left off: large carriers
For the molecule B2, in test [3], the “Interaction with TRF1 lacking the acidic domain” value is on record as “abolished”. In addition, the “β-galactosidase levels (lacZ reporter activation)” value in test [4] amounted to 50.4 units.
